Laboratory results taken from US7799901B2, “Modulators of the function of FAS receptors and other proteins” (Yeda Research and Development Co. Ltd., priority 1995, dated 2010).

Legend:
MORT-1 = target: T1, MORT-1 (Homo sapiens, UniProt Q13158, G32V); test: Two-hybrid test (FIG. 1), binding to full-length MORT-1; set-up: expressed in transfected cells; host or cells: SFY526 yeast
T1 sequence (Q13158 with tags, fused parts or gaps G32V): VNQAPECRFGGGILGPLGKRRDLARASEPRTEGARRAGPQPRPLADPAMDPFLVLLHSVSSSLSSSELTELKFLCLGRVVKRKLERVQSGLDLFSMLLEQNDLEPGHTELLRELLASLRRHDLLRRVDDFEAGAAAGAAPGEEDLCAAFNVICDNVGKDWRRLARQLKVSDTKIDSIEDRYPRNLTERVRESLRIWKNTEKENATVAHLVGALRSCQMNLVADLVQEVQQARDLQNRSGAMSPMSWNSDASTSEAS
Text: (§1) To isolate proteins interacting with the intracellular domain of the FAS-R, the yeast two-hybrid system was used (Fields and Song, 1989). […] In this system, the genes for the candidate interacting proteins are cloned into separate expression vectors. In one expression vector, the sequence of the one candidate protein is cloned in phase with the sequence of the GAL4 DNA-binding domain to generate a hybrid protein with the GAL4 DNA-binding-domain, and in the other vector, the sequence of the second candidate protein is cloned in phase with the sequence of the GAL4 activation domain to generate a hybrid protein with the GAL4-activation domain. The two hybrid vectors are then co-transformed into a yeast host strain having a lacZ or HIS3 reporter gene under the control of upstream GAL4 binding sites. Only those transformed host cells (cotransformants) in which the two hybrid proteins are expressed and are capable of interacting with each other, will be capable of expressing the reporter gene. In the case of the lacZ reporter gene, host cells expressing this gene will become blue in color when X-gal is added to the cultures.
(b) retransforming the plasmid DNA and original FAS-IC hybrid plasmid and control plasmids described in (a) into yeast host cells of strain SFY526 and determining the LACZ^+ activity (effectivity of β-gal formation, i.e., blue color formation).
In FIG. 1, there is depicted the interaction of the proteins encoded by the Gal4 DNA binding domain and activation-domain constructs (pGBT9 and pGAD-GH) within transfected SFY526 yeasts as assessed by β-galactosidase expression filter assay. The DNA-binding-domain constructs included four constructs of the human Fas-IC, four constructs of the mouse Fas-IC including two full-length constructs having […] or Ile to Ala replacement mutations at position 225 (I225N and I225A, respectively), and three MORT-1 constructs, all of which are shown schematically on the left hand side of FIG. 1. […]

CD40 = target: T2, CD40 (Homo sapiens, UniProt P25942); test: Two-hybrid test of MORT-1 binding (FIG. 1), CD40; conditions: CD40-IC residues 216-277, FIG. 1
T2 construct: human CD40 (CD40-IC, residues 216-277); expressed in transfected cells; host or cells: SFY526 yeast
T2 sequence (P25942 216-277): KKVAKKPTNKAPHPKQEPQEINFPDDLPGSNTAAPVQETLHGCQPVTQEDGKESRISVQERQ
Text: as §1, with “cultures. […]” for “cultures.”
(§2) In FIG. 1, there is depicted the interaction of the proteins encoded by the Gal4 DNA binding domain and activation-domain constructs (pGBT9 and pGAD-GH) within transfected SFY526 yeasts as assessed by β-galactosidase expression filter assay. […]

[1] = target: T3, FAS-IC with replacement mutations at position 225 (Ile) (Mus musculus, UniProt P25446, I246A); test: Two-hybrid test of MORT-1 binding (FIG. 1), FAS-IC mutated at position 225; conditions: lpr^eg mutation site
T3 construct: four constructs of the mouse Fas-IC including two full-length constructs; expressed in transfected cells; host or cells: SFY526 yeast
T3 sequence (P25446 187-327 I246A): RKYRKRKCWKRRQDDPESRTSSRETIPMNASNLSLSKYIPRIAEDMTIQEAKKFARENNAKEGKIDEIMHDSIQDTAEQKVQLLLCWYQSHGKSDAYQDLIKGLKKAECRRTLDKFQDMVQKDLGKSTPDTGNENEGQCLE
Text: as §1, with “cultures. […]” for “cultures.”
as §2

B1: MORT-1: Mediator of Receptor-induced Toxicity; protein binding the intracellular domain of FAS-R, SEQ ID NO:2 (protein)
chain: VNQAPECRFGGGILGPLGKRRDLARASEPRTEGARRAGPQPRPLADPAMDPFLVLLHSVSSSLSSSELTELKFLCLGRVVKRKLERVQSGLDLFSMLLEQNDLEPGHTELLRELLASLRRHDLLRRVDDFEAGAAAGAAPGEEDLCAAFNVICDNVGKDWRRLARQLKVSDTKIDSIEDRYPRNLTERVRESLRIWKNTEKENATVAHLVGALRSCQMNLVADLVQEVQQARDLQNRSGAMSPMSWNSDASTSEAS
With B1 the “binding to full-length MORT-1 in two-hybrid test” value (MORT-1) was “binds to itself”, the “binding to CD40 in two-hybrid test” value (CD40) was “not” and the “binding to FAS-IC with replacement mutation at position 225” value [1] was “prevents binding”.
